Experiment [1] deals with cobalamin binding domains of Thermus thermophilus CarH (TtCBD) (Thermus thermophilus). The experiment is described as follows: time-resolved X-ray solution scattering.
For experiment [2] the target is unchanged. Nature of the experiment: crystal structure.

What is called stoichiometry N is the number of molecules, sites or subunits per partner or assembly.

As to “cobalamin binding domains of Thermus thermophilus CarH (TtCBD) (domain or fragment)”, in experiment [1], the stoichiometry N came to 4 and the time constant of tetramer dissociation after photoexcitation was found to be 620 ms. Moreover, the stoichiometry N in experiment [2] worked out at 4.

For the origin of these results see article doi:10.1101/2025.08.13.669063.
